Measurements as given in the supplement of paper PMC10065799, “High-throughput profiling of sequence recognition by tyrosine kinases and SH2 domains using bacterial peptide display” (eLife, 2023).

Tests used:
[1] = target: FGFR1 (UniProt P11362); experiment: phosphorylation enrichment, bacterial display (enrichment ratio); higher = better substrate or ligand; peptides without Tyr show the background
[2] = test system: c-Src; experiment: as above
[3] = test system: c-Abl (mouse); experiment: as above
[4] = target: Jak2 (UniProt O60674); experiment: as above
[5] = target: Fes (UniProt P07332); experiment: as above
Fes, sequence (P07332 whole entry, looked up): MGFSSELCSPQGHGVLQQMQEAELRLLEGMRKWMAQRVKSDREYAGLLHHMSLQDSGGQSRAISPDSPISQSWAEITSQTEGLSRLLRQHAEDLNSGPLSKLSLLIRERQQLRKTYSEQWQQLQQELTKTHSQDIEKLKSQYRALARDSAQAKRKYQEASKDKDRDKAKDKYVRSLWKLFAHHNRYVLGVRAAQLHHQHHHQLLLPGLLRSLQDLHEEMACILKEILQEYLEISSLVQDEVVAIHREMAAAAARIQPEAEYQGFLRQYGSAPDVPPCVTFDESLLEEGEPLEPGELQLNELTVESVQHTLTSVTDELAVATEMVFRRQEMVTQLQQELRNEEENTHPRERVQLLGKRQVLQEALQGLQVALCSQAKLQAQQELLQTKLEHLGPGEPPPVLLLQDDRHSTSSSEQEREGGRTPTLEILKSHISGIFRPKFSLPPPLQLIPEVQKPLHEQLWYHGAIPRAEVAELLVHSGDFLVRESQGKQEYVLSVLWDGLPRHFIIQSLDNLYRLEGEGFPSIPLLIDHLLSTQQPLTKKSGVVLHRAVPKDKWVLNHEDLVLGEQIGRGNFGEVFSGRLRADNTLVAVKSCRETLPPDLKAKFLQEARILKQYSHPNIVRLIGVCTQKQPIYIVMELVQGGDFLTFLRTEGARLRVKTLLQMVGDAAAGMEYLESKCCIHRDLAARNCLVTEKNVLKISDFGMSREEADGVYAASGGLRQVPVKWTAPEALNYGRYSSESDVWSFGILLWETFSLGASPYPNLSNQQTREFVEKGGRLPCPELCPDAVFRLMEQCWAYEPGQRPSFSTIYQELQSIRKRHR

[6] = target: EPHB2 (UniProt P29323); experiment: as above
EPHB2, sequence (P29323 whole entry, looked up): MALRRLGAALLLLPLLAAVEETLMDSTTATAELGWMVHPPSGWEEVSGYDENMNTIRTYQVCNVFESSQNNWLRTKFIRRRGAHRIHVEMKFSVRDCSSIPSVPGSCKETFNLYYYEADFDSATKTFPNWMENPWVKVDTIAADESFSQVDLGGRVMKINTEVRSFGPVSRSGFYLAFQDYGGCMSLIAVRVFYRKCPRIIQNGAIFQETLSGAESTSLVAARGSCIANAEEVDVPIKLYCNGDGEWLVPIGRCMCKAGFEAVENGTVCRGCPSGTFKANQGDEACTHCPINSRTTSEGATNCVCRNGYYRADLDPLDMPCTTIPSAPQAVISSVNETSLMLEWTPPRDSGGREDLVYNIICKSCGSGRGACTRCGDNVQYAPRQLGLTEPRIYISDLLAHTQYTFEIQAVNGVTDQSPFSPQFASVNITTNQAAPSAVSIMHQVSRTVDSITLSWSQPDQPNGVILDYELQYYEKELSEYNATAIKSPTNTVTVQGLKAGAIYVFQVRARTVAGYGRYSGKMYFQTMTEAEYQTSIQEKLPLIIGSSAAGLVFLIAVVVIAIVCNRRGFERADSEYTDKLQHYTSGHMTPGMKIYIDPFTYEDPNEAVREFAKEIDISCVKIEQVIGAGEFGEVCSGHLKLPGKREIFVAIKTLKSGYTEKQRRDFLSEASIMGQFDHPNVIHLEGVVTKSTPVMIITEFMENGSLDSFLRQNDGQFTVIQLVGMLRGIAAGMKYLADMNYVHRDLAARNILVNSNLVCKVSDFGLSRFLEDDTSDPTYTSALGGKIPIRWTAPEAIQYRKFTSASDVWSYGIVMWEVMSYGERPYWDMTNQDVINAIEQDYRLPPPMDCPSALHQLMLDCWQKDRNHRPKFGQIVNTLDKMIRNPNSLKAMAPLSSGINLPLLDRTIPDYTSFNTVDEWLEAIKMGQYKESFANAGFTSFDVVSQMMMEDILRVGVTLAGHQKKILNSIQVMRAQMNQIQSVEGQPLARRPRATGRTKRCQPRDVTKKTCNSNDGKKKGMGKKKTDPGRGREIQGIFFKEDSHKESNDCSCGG

[7] = test system: AncSZ; experiment: as above
[8] = target: Fyn (UniProt P06241); experiment: as above
Fyn, sequence (P06241 whole entry, looked up): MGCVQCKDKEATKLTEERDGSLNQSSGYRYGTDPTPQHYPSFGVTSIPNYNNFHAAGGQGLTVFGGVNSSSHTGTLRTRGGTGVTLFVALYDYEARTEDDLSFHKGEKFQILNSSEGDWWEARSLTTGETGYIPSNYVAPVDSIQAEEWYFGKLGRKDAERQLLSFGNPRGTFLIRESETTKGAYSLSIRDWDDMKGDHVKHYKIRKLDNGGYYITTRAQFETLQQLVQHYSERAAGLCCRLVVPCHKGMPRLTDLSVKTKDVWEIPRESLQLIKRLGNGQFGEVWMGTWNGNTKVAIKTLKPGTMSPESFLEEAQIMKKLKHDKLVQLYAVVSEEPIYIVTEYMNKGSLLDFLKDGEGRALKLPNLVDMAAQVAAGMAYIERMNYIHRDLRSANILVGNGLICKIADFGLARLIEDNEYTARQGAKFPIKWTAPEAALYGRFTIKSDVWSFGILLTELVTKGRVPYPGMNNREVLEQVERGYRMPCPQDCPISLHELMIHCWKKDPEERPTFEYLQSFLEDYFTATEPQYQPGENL

[9] = target: FGFR3 (UniProt P22607); experiment: as above
FGFR3, sequence (P22607 whole entry, looked up): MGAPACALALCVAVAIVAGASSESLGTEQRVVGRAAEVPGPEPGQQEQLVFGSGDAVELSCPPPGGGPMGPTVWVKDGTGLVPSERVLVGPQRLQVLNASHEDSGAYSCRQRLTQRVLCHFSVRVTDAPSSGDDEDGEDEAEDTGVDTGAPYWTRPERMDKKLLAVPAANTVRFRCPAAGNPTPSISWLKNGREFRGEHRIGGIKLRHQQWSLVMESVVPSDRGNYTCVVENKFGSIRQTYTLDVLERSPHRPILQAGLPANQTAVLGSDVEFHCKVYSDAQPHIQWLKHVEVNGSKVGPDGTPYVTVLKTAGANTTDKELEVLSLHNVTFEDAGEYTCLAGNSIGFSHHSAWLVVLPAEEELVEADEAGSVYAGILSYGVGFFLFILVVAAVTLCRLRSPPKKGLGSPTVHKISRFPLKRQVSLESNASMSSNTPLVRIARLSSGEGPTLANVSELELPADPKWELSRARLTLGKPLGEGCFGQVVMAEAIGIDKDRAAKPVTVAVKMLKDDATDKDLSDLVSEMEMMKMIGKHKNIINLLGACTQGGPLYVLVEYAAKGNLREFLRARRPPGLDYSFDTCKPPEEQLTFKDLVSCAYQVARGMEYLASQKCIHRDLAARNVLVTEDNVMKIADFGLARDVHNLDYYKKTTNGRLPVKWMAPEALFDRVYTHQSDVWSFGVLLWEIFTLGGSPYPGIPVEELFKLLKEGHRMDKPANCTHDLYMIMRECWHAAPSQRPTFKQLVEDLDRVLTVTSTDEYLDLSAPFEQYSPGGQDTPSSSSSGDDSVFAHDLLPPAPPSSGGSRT

[10] = target: Hck (UniProt P08631); experiment: as above
Hck, sequence (P08631 whole entry, looked up): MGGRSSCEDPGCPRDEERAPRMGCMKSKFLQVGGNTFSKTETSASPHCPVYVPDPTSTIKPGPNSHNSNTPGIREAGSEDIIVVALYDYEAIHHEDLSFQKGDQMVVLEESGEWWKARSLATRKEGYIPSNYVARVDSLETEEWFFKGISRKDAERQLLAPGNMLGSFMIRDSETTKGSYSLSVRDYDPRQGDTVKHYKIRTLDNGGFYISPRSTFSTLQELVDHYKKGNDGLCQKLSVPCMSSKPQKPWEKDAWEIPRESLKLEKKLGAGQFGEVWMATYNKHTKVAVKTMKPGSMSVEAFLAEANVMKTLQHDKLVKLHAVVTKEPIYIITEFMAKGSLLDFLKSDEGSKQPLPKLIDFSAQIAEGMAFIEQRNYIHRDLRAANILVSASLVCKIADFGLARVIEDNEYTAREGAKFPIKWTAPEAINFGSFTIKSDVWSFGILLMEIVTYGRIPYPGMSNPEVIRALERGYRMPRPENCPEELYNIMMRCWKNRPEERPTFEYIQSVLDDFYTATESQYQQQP

[11] = test system: Fer (mouse); experiment: as above
[12] = target: EPHB1 (UniProt P54762); experiment: as above
EPHB1, sequence (P54762 whole entry, looked up): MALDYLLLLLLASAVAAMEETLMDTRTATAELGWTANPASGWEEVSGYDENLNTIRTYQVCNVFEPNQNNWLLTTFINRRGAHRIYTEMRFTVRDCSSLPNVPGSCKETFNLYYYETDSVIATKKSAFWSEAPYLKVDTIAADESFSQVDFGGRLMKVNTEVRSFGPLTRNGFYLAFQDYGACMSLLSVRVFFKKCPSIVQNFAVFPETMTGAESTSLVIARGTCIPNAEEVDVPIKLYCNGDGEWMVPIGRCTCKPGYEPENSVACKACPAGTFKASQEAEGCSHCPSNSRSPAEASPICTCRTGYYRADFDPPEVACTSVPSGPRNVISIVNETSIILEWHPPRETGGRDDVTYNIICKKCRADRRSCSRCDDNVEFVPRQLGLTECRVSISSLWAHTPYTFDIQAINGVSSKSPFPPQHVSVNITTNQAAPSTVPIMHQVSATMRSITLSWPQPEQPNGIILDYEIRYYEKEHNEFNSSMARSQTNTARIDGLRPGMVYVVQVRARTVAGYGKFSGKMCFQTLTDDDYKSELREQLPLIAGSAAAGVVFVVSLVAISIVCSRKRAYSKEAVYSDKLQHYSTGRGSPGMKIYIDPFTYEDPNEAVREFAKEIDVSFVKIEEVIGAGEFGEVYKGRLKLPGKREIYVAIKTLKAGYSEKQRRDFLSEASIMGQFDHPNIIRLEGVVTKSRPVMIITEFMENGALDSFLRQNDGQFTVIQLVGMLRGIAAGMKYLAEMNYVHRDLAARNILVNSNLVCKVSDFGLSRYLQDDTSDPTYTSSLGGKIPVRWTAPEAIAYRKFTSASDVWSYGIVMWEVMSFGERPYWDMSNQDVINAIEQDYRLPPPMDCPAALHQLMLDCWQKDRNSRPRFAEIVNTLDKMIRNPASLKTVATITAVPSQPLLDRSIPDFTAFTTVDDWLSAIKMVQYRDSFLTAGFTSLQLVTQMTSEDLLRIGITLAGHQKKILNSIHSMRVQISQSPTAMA

[13] = target: MERTK (UniProt Q12866); experiment: as above
[14] = target: SHP2-C SH2; experiment: SH2 binding enrichment of the phosphorylated peptide, bacterial display (enrichment ratio); higher = better substrate or ligand; peptides without Tyr show the background
[15] = target: Grb2 SH2 (UniProt P62993); experiment: as above
[16] = target: c-Src SH2; experiment: as above
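Throughout, for SH2 binding enrichment of the phosphorylated peptide, bacterial display: peptide library displayed on the E. coli surface as eCPX fusions, selected cells deep-sequenced, score is each peptide's frequency after selection divided by its frequency in the input.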
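Throughout, for phosphorylation enrichment, bacterial display: 11-residue human phosphosite peptides and single-mutation variants displayed on the E. coli surface, counted by deep sequencing, each peptide's frequency after selection divided by its frequency in the unselected input library; frequency after pTyr selection over input frequency; kinase dosed for 20-30% of maximal phosphorylation in three min.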

| SH2 binding enrichment [14] | SH2 binding enrichment [15] | SH2 binding enrichment [16] | Sequence | phosphorylation enrichment [1] | phosphorylation enrichment [2] | phosphorylation enrichment [3] | phosphorylation enrichment [4] | phosphorylation enrichment [5] | phosphorylation enrichment [6] | phosphorylation enrichment [7] | phosphorylation enrichment [8] | phosphorylation enrichment [9] | phosphorylation enrichment [10] | phosphorylation enrichment [11] | phosphorylation enrichment [12] | phosphorylation enrichment [13] |
| --- | --- | --- | --- | --- | --- | --- | --- | --- | --- | --- | --- | --- | --- | --- | --- | --- |
| 0.533 | 0.774 | 0.747 | NAPNSYGRRPS [CDKN2A_Y44_I49S] | 0.46 | 0.49 | 0.63 | 0.711 | 0.849 | 0.593 | 0.805 | 0.582 | 0.541 | 0.512 | 0.588 | 0.481 | 0.499 |
| 0.668 | 0.78 | 0.627 | SSDPDYRAAVD [GLB1_Y154_L155R] | 0.556 | 0.409 | 0.669 | 0.793 | 0.988 | 0.589 | 0.926 | 0.449 | 0.635 | 0.527 | 0.507 | 0.508 | 0.471 |
| 0.565 | 0.955 | 0.367 | RESFKYFPSSL [CXXC1_Y218_YF] | 0.543 | 0.852 | 0.454 | 0.612 | 0.567 | 0.421 | 0.748 | 0.435 | 0.547 | 0.4 | 0.295 | 0.424 | 0.421 |
| 0.512 | 0.679 | 0.417 | DTSKMYIPHTD [EXPH5_Y782] | 0.445 | 0.371 | 0.549 | 0.606 | 0.786 | 0.405 | 0.624 | 0.372 | 0.577 | 0.427 | 0.436 | 0.487 | 0.399 |
| 0.633 | 0.776 | 0.494 | QHVPDYRQNGF [PCDHGA1_Y890_V894G_YF] | 0.55 | 0.543 | 0.758 | 0.826 | 0.875 | 0.459 | 0.787 | 0.531 | 0.597 | 0.455 | 0.503 | 0.589 | 0.464 |
| 2.03 | 23.9 | 6.33 | VNKLVYENING [FRS2_Y306] | 0.52 | 1.78 | 0.524 | 0.539 | 0.8 | 0.75 | 0.665 | 0.95 | 0.454 | 2.67 | 3.63 | 4.71 | 1.64 |
| 0.56 | 0.875 | 0.603 | GCAGKYIAMVM [CYP19A1_Y441] | 0.44 | 0.414 | 0.712 | 0.889 | 1.07 | 0.474 | 1 | 0.461 | 0.702 | 0.439 | 0.513 | 0.548 | 0.569 |
| 0.678 | 0.888 | 0.508 | QHVPDYRQNVF [PCDHGA1_Y890_YF] | 0.59 | 0.572 | 0.798 | 0.991 | 1.03 | 0.597 | 0.889 | 0.602 | 0.704 | 0.585 | 0.578 | 0.583 | 0.54 |
| 1.27 | 1.35 | 0.763 | SGIFQYIIAKF [FOXL2_Y83_YF] | 0.639 | 0.561 | 0.84 | 1.07 | 1.13 | 0.564 | 1.14 | 0.496 | 0.704 | 0.546 | 0.503 | 0.602 | 0.518 |
| 0.735 | 0.767 | 0.52 | CGTPEYRAPEI [PRKACA_Y205_L206R] | 0.603 | 0.432 | 3.88 | 0.984 | 1.35 | 0.605 | 1.17 | 0.517 | 0.825 | 0.549 | 0.582 | 0.687 | 0.467 |
| 0.694 | 1.01 | 0.61 | DEEPPDRGPFC [SASH1_Y551_Y551D] | 0.574 | 0.513 | 0.798 | 0.952 | 1.14 | 0.596 | 1.15 | 0.532 | 0.679 | 0.496 | 0.665 | 0.549 | 0.465 |
| 0.715 | 0.651 | 0.408 | VNFDDYTVNLG [GFPT1_Y367] | 0.705 | 1.19 | 0.69 | 1.39 | 1.2 | 0.691 | 1.39 | 0.833 | 0.741 | 0.528 | 0.493 | 0.787 | 0.487 |
| 0.694 | 0.806 | 0.557 | RNIQQHNSFVS [PRKAR1A_Y373_Y373H] | 0.42 | 0.367 | 0.438 | 0.461 | 0.451 | 0.343 | 0.601 | 0.443 | 0.448 | 0.378 | 0.379 | 0.604 | 0.329 |
| 0.605 | 0.752 | 0.544 | DDLEVYLKHLL [SACS_Y3477] | 0.479 | 0.558 | 0.61 | 0.822 | 0.97 | 0.503 | 1.03 | 0.482 | 0.697 | 0.58 | 0.653 | 0.505 | 0.409 |
| 0.61 | 0.89 | 0.703 | SLHPGYNFRFA [P2RX7_Y291_Y288H_YF] | 0.364 | 0.385 | 0.57 | 0.765 | 0.904 | 0.417 | 0.852 | 0.378 | 0.524 | 0.432 | 0.434 | 0.573 | 0.394 |
| 0.764 | 1.16 | 1.02 | RKPDIYGRLAS [MCM4_Y459_E460G] | 0.757 | 2.24 | 0.67 | 0.535 | 0.807 | 0.545 | 0.628 | 4.7 | 1.05 | 5.06 | 0.747 | 0.513 | 0.753 |
| 0.713 | 0.725 | 0.964 | PVEAAYQKVVA [HBB_Y131_Q128E] | 0.573 | 0.517 | 0.601 | 0.556 | 0.695 | 0.401 | 0.819 | 0.56 | 0.617 | 0.612 | 0.558 | 0.397 | 0.52 |
| 0.924 | 0.686 | 0.472 | SHMVNYQPYRK [TEX37_Y25_D24N] | 0.394 | 0.401 | 0.368 | 0.385 | 0.49 | 0.332 | 0.528 | 0.375 | 0.353 | 0.396 | 0.293 | 0.317 | 0.351 |
| 0.654 | 0.879 | 0.471 | FSKQIYKGMVA [PCDH15_Y931_R929Q] | 0.337 | 0.365 | 0.42 | 0.472 | 0.479 | 0.342 | 0.441 | 0.502 | 0.432 | 0.384 | 0.331 | 0.351 | 0.346 |

More lines, now with the values behind:

| Sequence | SH2 binding enrichment [14] | SH2 binding enrichment [15] | SH2 binding enrichment [16] | phosphorylation enrichment [1] | phosphorylation enrichment [2] | phosphorylation enrichment [3] | phosphorylation enrichment [4] | phosphorylation enrichment [5] | phosphorylation enrichment [6] | phosphorylation enrichment [7] | phosphorylation enrichment [8] | phosphorylation enrichment [9] | phosphorylation enrichment [10] | phosphorylation enrichment [11] | phosphorylation enrichment [12] | phosphorylation enrichment [13] |
| --- | --- | --- | --- | --- | --- | --- | --- | --- | --- | --- | --- | --- | --- | --- | --- | --- |
| PIPAAYNRFDQ [CDC73_Y290_YF] | 0.648 | 0.792 | 0.579 | 0.456 | 0.303 | 0.357 | 0.833 | 0.778 | 0.426 | 0.513 | 0.451 | 0.643 | 0.446 | 0.485 | 0.643 | 0.509 |
| IGEGTSGVVYK [CDK2_Y15_Y15S] | 0.562 | 0.639 | 0.361 | 0.299 | 0.29 | 0.5 | 0.494 | 0.616 | 0.319 | 0.574 | 0.28 | 0.426 | 0.306 | 0.339 | 0.374 | 0.274 |
| CEAVEYLESKQ [BTK_Y511_M509V] | 0.643 | 0.929 | 0.539 | 0.534 | 0.52 | 0.738 | 1.32 | 1.41 | 0.802 | 1.3 | 0.443 | 0.875 | 0.613 | 0.564 | 0.546 | 0.384 |
| HDHYGYRQSVT [CD55_Y245_R240H] | 0.833 | 0.895 | 0.654 | 0.695 | 0.538 | 0.622 | 1.06 | 1.06 | 0.713 | 0.801 | 0.94 | 0.623 | 0.969 | 0.743 | 0.4 | 0.883 |
| FKTPTYPFLLP [PLD2_Y578_YF] | 0.745 | 0.971 | 0.657 | 0.652 | 0.552 | 0.833 | 0.815 | 0.693 | 0.422 | 0.641 | 0.413 | 0.704 | 0.43 | 0.362 | 0.74 | 0.588 |
| VGTKRYMAPDV [ACVRL1_Y375_E379D] | 0.522 | 0.573 | 0.496 | 0.296 | 0.293 | 0.494 | 0.415 | 0.491 | 0.402 | 0.424 | 0.306 | 0.412 | 0.334 | 0.35 | 0.42 | 0.277 |
| IGERTYGQVFK [CDK13_Y716_G714R_YF] | 0.754 | 0.857 | 0.519 | 0.368 | 5.22 | 0.474 | 0.495 | 0.905 | 0.557 | 0.62 | 7.52 | 0.482 | 3.7 | 0.456 | 0.468 | 0.4 |
| REGAKYVSHGT [ASS1_Y113_A118T] | 0.706 | 0.808 | 0.566 | 0.493 | 0.411 | 0.517 | 0.898 | 0.969 | 0.587 | 0.73 | 0.363 | 0.482 | 0.37 | 0.375 | 0.513 | 0.663 |
| RVEDACILTCN [CCT6A_Y229_Y229C] | 0.738 | 0.85 | 0.657 | 0.708 | 0.727 | 0.86 | 1.18 | 1.12 | 0.688 | 0.994 | 0.551 | 0.968 | 0.751 | 0.571 | 0.622 | 0.683 |
| FVSSFYHAFSG [ACTN4_Y265_YF] | 1.07 | 1.33 | 0.95 | 1.2 | 4.01 | 2.01 | 1.19 | 1.3 | 0.896 | 0.999 | 2.32 | 1.34 | 2.6 | 0.522 | 1.51 | 8.71 |
| SDMGQYQCLVF [AXL_Y115_T112M] | 0.916 | 0.726 | 0.437 | 2.05 | 1.97 | 1.57 | 0.933 | 1.22 | 0.991 | 1.3 | 2.35 | 1.89 | 3.14 | 3.38 | 0.923 | 1.84 |
| VGTKRYMALEV [ACVRL1_Y375_P378L] | 0.805 | 0.977 | 0.813 | 0.472 | 0.486 | 0.709 | 0.557 | 0.75 | 0.451 | 0.691 | 0.429 | 0.541 | 0.458 | 0.418 | 0.549 | 0.448 |
| ISRLKYPVSQQ [BTK_Y375] | 1.04 | 0.938 | 0.831 | 0.317 | 0.342 | 0.486 | 0.534 | 0.59 | 0.383 | 0.419 | 0.355 | 0.399 | 0.352 | 0.318 | 0.331 | 0.313 |
| ATDLAYFLVRK [ASL_Y375_YF] | 1.84 | 2.04 | 1.18 | 1.26 | 0.728 | 1.2 | 2.72 | 1.6 | 0.872 | 1.73 | 0.725 | 1.32 | 0.686 | 0.509 | 0.73 | 0.642 |
